Data on seven molecules can be found in US20220125845A1 (GUANGDONG TCRCURE BIOPHARMA TECHNOLOGY, published 2022).

Assay [1] has as its target ALPP on ALPP-positive SiHa cervical cancer cells (UniProt P05187). Nature of the assay: cell-based or functional assay.
Assay [2] has as its target T1, ALPP antigen (alkaline phosphatase, placental), coated on ELISA plates (UniProt P05187 23-506, limits assumed).
T1 construct: 125 ng ALPP antigen was coated per plate/well; the general description concerns human ALPP; also called PLAP; placental alkaline phosphatase
Nature of the assay: ELISA, plate coated with 125 ng ALPP antigen, biotin goat anti-human and streptavidin-HRP, OD450. The method, then:
(§1) Enzyme-linked immunosorbent assay (ELISA) plates were coated with 125 ng ALPP antigen. After blocking the plates, serial dilutions of anti-ALPP antibodies including A02 (H17E2), A04, A05, A06, A07, A08, A09, or a chimeric antibody were added to corresponding wells. Then, a Biotin-SP-AffiniPure goat anti-human antibody was added to wells containing the humanized antibodies A04, A05, A06, A07, A08, A09, or the chimeric antibody. Meanwhile, a Biotin-SP-AffiniPure goat anti-mouse Fc antibody was added to wells containing the mouse antibody H17E2. Next, HRP-conjugated streptavidin was used for biotin detection. Final detection was accomplished by assessing OD450 after 3,3′,5,5′-Tetramethylbenzidine (TMB) substrate was added. Binding curves and calculated EC₅₀ values are shown in FIG. 10A and the table below, respectively.

In assay [3] the target is T2, ALPP on ALPP-positive SiHa cervical cancer cells (UniProt P05187 23-506, limits assumed).
T2 construct: whole, on cells; SiHa cells (ATCC) are called ALPP-positive cervical cancer cells, and ALPP is the target meant; SiHa is a human line; also called PLAP; SiHa cells
T2 sequence (P05187 23-506 limits assumed): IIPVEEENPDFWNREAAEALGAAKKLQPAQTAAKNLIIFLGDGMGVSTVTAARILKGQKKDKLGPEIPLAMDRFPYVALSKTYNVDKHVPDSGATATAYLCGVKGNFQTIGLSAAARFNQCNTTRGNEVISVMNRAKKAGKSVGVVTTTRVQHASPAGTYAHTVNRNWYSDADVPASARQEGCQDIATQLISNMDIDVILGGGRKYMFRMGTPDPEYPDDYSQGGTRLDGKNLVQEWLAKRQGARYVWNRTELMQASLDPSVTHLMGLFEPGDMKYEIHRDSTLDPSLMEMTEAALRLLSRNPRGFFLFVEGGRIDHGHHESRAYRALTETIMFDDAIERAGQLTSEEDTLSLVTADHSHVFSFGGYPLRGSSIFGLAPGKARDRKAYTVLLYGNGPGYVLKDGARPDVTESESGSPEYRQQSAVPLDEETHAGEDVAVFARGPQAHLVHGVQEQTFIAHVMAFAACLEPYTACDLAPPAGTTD
As to the kind of experiment: flow cytometry on SiHa cells, AF488 goat anti-human secondary. The method, then:
(§2) 0.2×10⁶ SiHa cells were incubated with serially diluted anti-ALPP antibodies as described herein. Afterward, an AF488 goat anti-human secondary antibody or an AF488 goat anti-mouse IgG (Fcγ fragment specific) was used to stain the cells. Then, the fluorescently stained cells were detected by flow cytometry. Binding curves and calculated EC₅₀ values are shown in FIG. 10B and the table below, respectively.

For assay [4], the target named is T1, ALPP antigen (alkaline phosphatase, …). Nature of the assay: ELISA, plate coated with 125 ng ALPP antigen, biotin goat anti-mouse Fc and streptavidin-HRP, OD450. The method, then: as §1
Assay [5] addresses T2, ALPP on ALPP-positive SiHa cervical …. Nature of the assay: flow cytometry on SiHa cells, AF488 goat anti-mouse IgG (Fcγ specific) secondary. The protocol: as §2

T1 sequence (P05187 23-506 limits assumed): as above
ALPP on ALPP-positive SiHa cervical cancer cells (UniProt P05187), sequence (P05187 23-506 limits assumed): as above

Turning to “A02 CAR (murine H17E2 scFv, CD8 hinge and transmembrane region, 4-1BB, CD3 zeta)”, in assay [1], the CD69 expression in CD3+ Jurkat cells (percent activated), overnight co-culture with SiHa cells was 70 to 80%.

B1: humanized anti-ALPP antibody A05 (antibody, V domains shown)
VH: QVQLKESGPGLVAPSQTLSLTCTVSGFSLTSYGVSWIRQPPGKGLEWIGVIWEDGSTNYHSALISRVSISVDTSKSQFSLKLSSVDAADTAVYYCARPHYGSSYVGAMEYWGQGTTVTVSS
VL: DIQMTQSPSSLSASVGDRVTITCRASENIYSYVAWYQQKPGKAPKFLIYNAKSLAEGVPSRFSGSGSGTDFTLTISSLQPEDFANYYCQHHYVSPWTFGQGTKVEIK
notes: Detected with a goat anti-human secondary antibody; also called A05Ab
Consider B1, for which the figures for the EC50 in assay [2] and in assay [3] were 0.00491 µg/mL and 0.225 µg/mL, respectively.

B2: humanized anti-ALPP antibody A07 (antibody, V domains shown)
VH: QVQLKESGPGLVAPSQTLSLTCTVSGFSLTSYGVSWIRQPPGKGLEWIGVIWEDGSTNYHSALISRVSISVDTSKSQFSLKLSSVDAADTAVYYCAKPHYGSSYVGAMEYWGQGTTVTVSS
VL: DIQMTQSPSSLSASVGDRVTITCRASENIYSYVAWYQQKPGKAPKFLIYNAKSLAEGVPSRFSGSGSGTDFTLTISSLQPEDFANYYCQHHYVSPWTFGQGTKVEIK
notes: Detected with a goat anti-human secondary antibody; also called A07Ab
Consider B2, for which the results for the EC50 in assay [2] and in assay [3] were 0.00534 µg/mL and 0.302 µg/mL, respectively.

B3: humanized anti-ALPP antibody A06 (antibody, V domains shown)
VH: QVQLKESGPGLVAPSQTLSLTCTVSGFSLTSYGVSWIRQPPGKGLEWIGVIWEDGSTNYHSALISRVSISVDTSKSQFSLKLSSVDAADTAVYYCAKPHYGSSYVGAMEYWGQGTTVTVSS
VL: DIQMTQSPSSLSASVGDRVTITCRASENIYSYVAWYQQKPGKAPKLLIYNAKSLAEGVPSRFSGSGSGTDFTLTISSLQPEDFANYYCQHHYVSPWTFGQGTKVEIK
notes: Detected with a goat anti-human secondary antibody; also called A06Ab
Take B3: the EC50 turned out to be 0.0037 µg/mL in assay [2] and 0.257 µg/mL in assay [3].

B4: humanized anti-ALPP antibody A04 (antibody, V domains shown)
VH: QVQLQESGPGLVAPSQTLSLTCTVSGFSLTSYGVSWIRQPPGKGLEWIGVIWEDGSTNYHSALISRVSISVDTSKSQFSLKLSSVDAADTAVYYCARPHYGSSYVGAMEYWGQGTTVTVSS
VL: DIQMTQSPSSLSASVGDRVTITCRASENIYSYVAWYQQKPGKAPKFLIYNAKSLAEGVPSRFSGSGSGTDFTLTISSLQPEDFANYYCQHHYVSPWTFGQGTKVEIK
notes: Detected with a goat anti-human secondary antibody; also called A04Ab
Turning to B4, the values for the EC50 in assay [2] and in assay [3] were 0.00589 µg/mL and 0.286 µg/mL, respectively.

B5: humanized anti-ALPP antibody A08 (antibody, V domains shown)
VH: QVQLQESGPGLVKPSQTLSLTCTVSGFSLTSYGVSWIRQPPGKGLEWIGVIWEDGSTNYHSALISRVSISVDTSKSQFSLKLSSVDAADTAVYYCARPHYGSSYVGAMEYWGQGTTVTVSS
VL: DIQMTQSPSSLSASVGDRVTITCRASENIYSYVAWYQQKPGKAPKFLIYNAKSLAEGVPSRFSGSGSGTDFTLTISSLQPEDFANYYCQHHYVSPWTFGQGTKVEIK
notes: Detected with a goat anti-human secondary antibody; also called A08Ab
For B5, the EC50 in assay [2] was found to be 0.00481 µg/mL; in assay [3], 0.233 µg/mL.

B6: parent mouse anti-ALPP antibody H17E2 (antibody, V domains shown)
VH: QVQLKESGPGLVAPSQSLSITCTVSGFSLTSYGVSWVRQPPRKGLEWLGVIWEDGSTNYHSALISRLSINKDNSKSQVFLKLNSLQTDDTATYYCAKPHYGSSYVGAMEYWGQGTSVTVSS
VL: DIQMTQSPASLTASVGETVTITCRASENIYSYVAWYQQKQGKSPQFLVYNAKSLAEGVPSRFSGSGSGTQFSLKINSLQPEDFGNYYCQHHYVSPWTFGGGTKLEIK
notes: Mouse monoclonal antibody, detected with goat anti-mouse Fc secondary antibodies; also called A02; A02 antibody
Take B6: the EC50 in assay [4] was found to be 0.0108 µg/mL; in assay [5], 0.211 µg/mL.
